In patent publication US20220119464A1:

Biological target: biotinylated L-form of SARS-CoV-2 HR1 (SARS-CoV-2)

SLDQINVTFLDLEYEMKKLEEAIKKLEESYIDLKEL (modifications not checked) [L-form of EK1]
Kd: 23 nM
